Article PMC10246013 (bioRxiv, 2023)
Each block holds one molecule with its values, some of them ahead of it.

Experiments:
[1] = biological target: dynein-dynactin-BicDR1 complex assembled with wtDyn (wtDDR) (human | pig | mouse) (UniProt Q14204); assay: three-color TIRF comigration with processive complexes
WT dynein-GFP (human) = WT dynein-GFP (human) (UniProt Q14204); assay: real-time TIRF imaging of the initiation of motility
[2] = biological target: wild-type human dynein (wtDyn) (human) (UniProt Q14204); assay: single-molecule colocalization
mass photometry = biological target: the molecule itself; assay: mass photometry

Chain of dynein-dynactin-BicDR1 complex assembled with wtDyn (wtDDR) (human | pig | mouse) (Q14204 whole entry, looked up, one chain of several): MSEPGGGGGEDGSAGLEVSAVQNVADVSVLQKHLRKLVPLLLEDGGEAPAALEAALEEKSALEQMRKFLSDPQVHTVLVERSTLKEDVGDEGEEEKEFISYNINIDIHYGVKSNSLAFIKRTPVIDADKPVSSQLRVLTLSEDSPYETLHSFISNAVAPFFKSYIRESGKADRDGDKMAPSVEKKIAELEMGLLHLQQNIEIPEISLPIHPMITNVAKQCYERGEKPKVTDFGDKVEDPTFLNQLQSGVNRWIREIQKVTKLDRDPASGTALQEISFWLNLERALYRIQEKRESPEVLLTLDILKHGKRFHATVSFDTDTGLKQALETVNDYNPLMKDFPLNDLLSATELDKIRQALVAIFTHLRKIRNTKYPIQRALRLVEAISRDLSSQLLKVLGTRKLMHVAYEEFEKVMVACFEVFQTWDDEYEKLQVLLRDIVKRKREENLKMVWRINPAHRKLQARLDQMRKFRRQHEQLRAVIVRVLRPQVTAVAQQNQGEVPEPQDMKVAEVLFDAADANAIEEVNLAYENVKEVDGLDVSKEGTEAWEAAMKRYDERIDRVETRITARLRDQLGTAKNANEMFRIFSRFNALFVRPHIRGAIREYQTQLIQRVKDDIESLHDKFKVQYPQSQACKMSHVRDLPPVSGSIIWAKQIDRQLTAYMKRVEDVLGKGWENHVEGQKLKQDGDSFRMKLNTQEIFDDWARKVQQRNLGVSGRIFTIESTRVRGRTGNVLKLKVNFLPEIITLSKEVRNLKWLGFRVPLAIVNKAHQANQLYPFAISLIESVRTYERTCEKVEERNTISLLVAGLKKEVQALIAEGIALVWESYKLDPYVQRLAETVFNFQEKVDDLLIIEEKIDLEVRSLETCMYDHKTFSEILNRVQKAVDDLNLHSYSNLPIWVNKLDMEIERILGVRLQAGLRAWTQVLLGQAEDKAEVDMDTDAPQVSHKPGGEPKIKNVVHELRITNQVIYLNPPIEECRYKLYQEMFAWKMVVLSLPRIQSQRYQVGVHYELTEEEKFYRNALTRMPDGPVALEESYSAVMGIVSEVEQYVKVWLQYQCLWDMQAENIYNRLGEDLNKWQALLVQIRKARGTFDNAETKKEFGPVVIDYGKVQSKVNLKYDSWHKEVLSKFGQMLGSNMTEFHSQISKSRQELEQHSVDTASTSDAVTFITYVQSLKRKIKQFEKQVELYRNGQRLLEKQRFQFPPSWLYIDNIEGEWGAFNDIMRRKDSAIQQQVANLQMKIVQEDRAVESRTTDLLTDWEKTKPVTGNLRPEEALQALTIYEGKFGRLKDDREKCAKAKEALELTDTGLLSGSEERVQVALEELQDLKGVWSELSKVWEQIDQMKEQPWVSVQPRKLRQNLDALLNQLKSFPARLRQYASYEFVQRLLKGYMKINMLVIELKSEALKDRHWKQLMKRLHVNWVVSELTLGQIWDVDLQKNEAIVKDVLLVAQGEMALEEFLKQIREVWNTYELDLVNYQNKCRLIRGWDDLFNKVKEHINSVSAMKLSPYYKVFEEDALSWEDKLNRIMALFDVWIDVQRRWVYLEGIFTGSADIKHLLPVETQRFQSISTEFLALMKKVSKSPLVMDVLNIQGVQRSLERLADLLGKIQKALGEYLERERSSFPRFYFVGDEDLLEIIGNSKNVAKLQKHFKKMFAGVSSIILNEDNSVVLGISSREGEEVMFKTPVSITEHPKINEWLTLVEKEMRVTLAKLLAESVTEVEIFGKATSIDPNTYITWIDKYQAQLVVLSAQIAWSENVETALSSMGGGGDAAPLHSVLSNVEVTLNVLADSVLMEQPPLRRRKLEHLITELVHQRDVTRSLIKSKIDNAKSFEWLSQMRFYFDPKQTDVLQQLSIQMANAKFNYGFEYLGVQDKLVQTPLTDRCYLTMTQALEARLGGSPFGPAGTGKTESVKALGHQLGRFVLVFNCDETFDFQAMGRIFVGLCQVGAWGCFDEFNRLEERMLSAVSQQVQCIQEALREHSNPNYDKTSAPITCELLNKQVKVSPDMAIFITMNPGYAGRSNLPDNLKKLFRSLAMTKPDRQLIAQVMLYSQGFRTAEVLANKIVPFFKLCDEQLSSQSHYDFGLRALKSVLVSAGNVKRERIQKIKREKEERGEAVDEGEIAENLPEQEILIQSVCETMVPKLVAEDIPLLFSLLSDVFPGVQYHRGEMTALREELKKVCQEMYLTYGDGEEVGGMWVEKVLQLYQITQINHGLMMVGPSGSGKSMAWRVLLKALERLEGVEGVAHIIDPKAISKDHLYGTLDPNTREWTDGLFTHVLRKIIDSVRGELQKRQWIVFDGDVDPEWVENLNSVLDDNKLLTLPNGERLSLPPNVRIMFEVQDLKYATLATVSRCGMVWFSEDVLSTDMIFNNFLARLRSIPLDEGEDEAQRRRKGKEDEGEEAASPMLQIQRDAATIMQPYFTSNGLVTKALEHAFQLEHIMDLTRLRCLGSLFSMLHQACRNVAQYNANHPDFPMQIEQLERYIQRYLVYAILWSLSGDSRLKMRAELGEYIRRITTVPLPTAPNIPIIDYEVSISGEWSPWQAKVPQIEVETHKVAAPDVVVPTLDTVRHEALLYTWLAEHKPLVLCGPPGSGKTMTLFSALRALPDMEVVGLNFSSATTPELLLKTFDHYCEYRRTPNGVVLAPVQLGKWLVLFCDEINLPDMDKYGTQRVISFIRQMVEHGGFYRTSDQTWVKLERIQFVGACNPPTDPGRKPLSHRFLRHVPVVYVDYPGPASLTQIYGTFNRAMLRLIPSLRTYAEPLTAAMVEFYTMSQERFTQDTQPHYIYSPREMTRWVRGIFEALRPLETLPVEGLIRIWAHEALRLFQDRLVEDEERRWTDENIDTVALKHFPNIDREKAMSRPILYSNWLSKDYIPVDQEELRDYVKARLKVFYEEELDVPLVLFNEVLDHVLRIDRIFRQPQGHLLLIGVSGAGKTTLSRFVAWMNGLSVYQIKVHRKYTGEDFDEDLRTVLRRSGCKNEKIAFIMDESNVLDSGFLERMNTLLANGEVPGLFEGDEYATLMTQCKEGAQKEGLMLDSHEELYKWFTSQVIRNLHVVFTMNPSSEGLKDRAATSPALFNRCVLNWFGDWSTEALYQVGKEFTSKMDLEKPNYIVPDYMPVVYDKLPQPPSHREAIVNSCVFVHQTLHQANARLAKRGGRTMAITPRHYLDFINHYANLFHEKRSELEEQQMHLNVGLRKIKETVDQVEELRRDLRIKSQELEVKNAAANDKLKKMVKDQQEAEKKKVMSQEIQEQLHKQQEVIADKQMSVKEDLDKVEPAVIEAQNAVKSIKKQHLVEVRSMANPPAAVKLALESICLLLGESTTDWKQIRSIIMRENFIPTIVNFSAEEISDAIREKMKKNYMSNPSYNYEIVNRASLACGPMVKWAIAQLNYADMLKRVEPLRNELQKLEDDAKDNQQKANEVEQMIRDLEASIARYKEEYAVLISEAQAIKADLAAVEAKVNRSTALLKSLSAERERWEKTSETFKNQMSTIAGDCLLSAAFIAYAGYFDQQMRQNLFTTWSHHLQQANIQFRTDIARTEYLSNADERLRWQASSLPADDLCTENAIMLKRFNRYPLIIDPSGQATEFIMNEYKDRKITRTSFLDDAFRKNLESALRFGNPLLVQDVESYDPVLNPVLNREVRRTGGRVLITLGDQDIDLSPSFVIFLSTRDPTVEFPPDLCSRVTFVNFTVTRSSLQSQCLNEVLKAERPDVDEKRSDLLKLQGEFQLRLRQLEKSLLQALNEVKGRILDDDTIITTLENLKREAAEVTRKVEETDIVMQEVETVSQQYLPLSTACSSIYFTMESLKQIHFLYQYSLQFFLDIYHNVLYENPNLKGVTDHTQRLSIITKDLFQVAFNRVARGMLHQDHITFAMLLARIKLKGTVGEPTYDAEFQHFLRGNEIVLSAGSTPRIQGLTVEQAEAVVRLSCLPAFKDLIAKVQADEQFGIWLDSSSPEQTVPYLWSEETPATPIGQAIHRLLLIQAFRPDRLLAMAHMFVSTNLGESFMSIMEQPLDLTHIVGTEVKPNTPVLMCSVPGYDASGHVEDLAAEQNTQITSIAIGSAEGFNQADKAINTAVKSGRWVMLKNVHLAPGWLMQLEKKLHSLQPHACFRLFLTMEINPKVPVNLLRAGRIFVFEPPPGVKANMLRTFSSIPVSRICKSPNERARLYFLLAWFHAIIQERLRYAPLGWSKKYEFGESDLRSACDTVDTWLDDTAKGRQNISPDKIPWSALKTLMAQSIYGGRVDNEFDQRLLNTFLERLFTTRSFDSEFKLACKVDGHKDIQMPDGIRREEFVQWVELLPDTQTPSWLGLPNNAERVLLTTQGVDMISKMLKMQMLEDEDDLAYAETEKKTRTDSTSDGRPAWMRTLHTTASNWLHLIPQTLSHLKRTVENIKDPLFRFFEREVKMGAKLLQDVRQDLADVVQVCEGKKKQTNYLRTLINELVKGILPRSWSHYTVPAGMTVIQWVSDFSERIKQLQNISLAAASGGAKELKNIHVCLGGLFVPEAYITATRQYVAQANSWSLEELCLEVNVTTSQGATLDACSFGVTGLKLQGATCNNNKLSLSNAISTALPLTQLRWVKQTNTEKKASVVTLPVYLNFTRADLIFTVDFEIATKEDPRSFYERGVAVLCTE

B1: Nde1^1–190 (N-terminus of human Nde1) (domain or fragment)
chain: MEDSGKTFSSEEEEANYWKDLAMTYKQRAENTQEELREFQEGSREYEAELETQLQQIETRNRDLLSENNRLRMELETIKEKFEVQHSEGYRQISALEDDLAQTKAIKDQLQKYIRELEQANDDLERAKRATIMSLEDFEQRLNQAIERNAFLESELDEKENLLESVQRLKDEARDLRQELAVQQKQEKPR
modifications: LD555 dye in the size exclusion experiment
stoichiometry N (mass photometry): 2

B2: human Nde1 (full-length) (natural protein)
chain: MEDSGKTFSSEEEEANYWKDLAMTYKQRAENTQEELREFQEGSREYEAELETQLQQIETRNRDLLSENNRLRMELETIKEKFEVQHSEGYRQISALEDDLAQTKAIKDQLQKYIRELEQANDDLERAKRATIMSLEDFEQRLNQAIERNAFLESELDEKENLLESVQRLKDEARDLRQELAVQQKQEKPRTPMPSSVEAERTDTAVQATGSVPSTPIAHRGPSSSLNTPGSFRRGLDDSTGGTPLTPAARISALNIVGDLLRKVGALESKLASCRNLVYDQSPNRTGGPASGRSSKNRDGGERRPSSTSVPLGDKGLDTSCRWLSKSTTRSSSSC
modifications: LD655 or LD555 dye in the fluorescence assays
stoichiometry N (mass photometry): 2

More lines, now with the values ahead:

percent of DDR complexes co-migrating with Lis1 [1]: 70%
Molecule: human Lis1 (full-length) (from UniProt P43034 1-410) (natural protein)

percent of dynein-colocalized Nde1 immediately released, with Lis1 (WT dynein-GFP (human)): 50% | percent reduction of Nde1 colocalization to dynein [2]: 37%
Molecule: pig brain dynactin (from UniProt A0A287B8J2 1-1281) (complex)
